Assay results: publication PMC9462685 (Science Advances, 2022)

Legend:
[1] = biological target: 6×His-tagged AvrSr35 (residues 27 to 578) (Puccinia graminis f. sp. tritici); experiment: AUC
[2] = biological target: Sr35 (Triticum monococcum) (UniProt S5ABD6); experiment: cryo-EM structure
[3] = biological target: Sr35 (Triticum monococcum) (UniProt S5ABD6); experiment: MST

6×His-tagged AvrSr35 (residues 27 to 578) (natural protein)
stoichiometry N [1]: 2 | stoichiometry N [2]: 1 | Kd [3]: 7.8 µM
